Drawing on paper PMC5673231, this text covers Km (called the affinity constant) of CCK-8 transport, [^3H]CCK-8 accumulation 0.1-40 uM, 3 min, in HEK293-OATP1B3 cells pretreated with bortezomib (50 nM, 7 h), Michaelis-Menten fit and Km (called the affinity constant) of CCK-8 transport, [^3H]CCK-8 accumulation 0.1-40 uM, 3 min, in HEK293-OATP1B3 cells pretreated with vehicle control, Michaelis-Menten fit for one substance.

The target in the assay is organic anion transporting polypeptide (OATP) 1B3 (UniProt Q9NPD5).
Sequence of UniProt Q9NPD5 (Q9NPD5 whole entry): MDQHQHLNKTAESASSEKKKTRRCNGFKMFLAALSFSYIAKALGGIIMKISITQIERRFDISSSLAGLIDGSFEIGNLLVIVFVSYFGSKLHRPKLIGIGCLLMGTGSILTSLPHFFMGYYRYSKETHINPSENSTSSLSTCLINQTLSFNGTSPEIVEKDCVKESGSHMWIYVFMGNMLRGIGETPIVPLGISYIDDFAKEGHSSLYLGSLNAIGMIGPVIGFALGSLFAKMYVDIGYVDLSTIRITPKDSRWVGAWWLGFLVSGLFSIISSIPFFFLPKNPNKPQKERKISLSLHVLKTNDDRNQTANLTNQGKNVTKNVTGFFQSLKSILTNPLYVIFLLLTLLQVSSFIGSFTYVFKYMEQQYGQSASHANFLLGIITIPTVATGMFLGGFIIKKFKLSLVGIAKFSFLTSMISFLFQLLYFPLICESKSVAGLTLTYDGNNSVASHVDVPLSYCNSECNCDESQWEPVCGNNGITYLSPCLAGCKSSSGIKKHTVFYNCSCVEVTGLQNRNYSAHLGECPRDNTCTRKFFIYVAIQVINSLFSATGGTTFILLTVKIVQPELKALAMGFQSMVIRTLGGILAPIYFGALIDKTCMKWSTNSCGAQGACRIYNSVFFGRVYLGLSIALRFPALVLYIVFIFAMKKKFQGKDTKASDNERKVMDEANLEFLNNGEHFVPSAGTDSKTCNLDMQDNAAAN

As for octapeptide cholecystokinin 8, the Km (called the affinity constant) of CCK-8 transport, [^3H]CCK-8 accumulation 0.1-40 uM, 3 min, in HEK293-OATP1B3 cells pretreated with bortezomib (50 nM, 7 h), Michaelis-Menten fit is 4.9 µM and the Km (called the affinity constant) of CCK-8 transport, [^3H]CCK-8 accumulation 0.1-40 uM, 3 min, in HEK293-OATP1B3 cells pretreated with vehicle control, Michaelis-Menten fit was 5.8 µM.
